From article PMC13136903, “Zα and Zβ domains of ADAR1 and ZBP1 bind G-quadruplexes with nanomolar affinities, establishing Zβ as a G-quadruplex-specific domain”

Tests used:
[1] = tested on: GV2 Zα (giant virus Zα domain) (giant virus (metagenome)); experiment: MST; details: 20 mM NaPi pH 6.4, 100 mM KCl, 1 mM DTT, 0.5 mM EDTA (LiCl replaces KCl where noted); ITC 35 C; MST 25 C with 20 nM protein (labelling without DTT; competition …)
[2] = biological target: T1, ADAR1 Zβ (Homo sapiens, UniProt P55265 291-366); experiment: MST; ligand-depletion range, may not be exact; 20 mM NaPi pH 6.4, 100 mM KCl, 1 mM DTT, 0.5 mM EDTA (LiCl replaces KCl where noted); ITC 35 C; MST 25 C with 20 nM protein (labelling without DTT); competition; details: protein: recombinant; tags: N-terminal 6xHis, thrombin site, T7 tag; parallel G4
T1 sequence: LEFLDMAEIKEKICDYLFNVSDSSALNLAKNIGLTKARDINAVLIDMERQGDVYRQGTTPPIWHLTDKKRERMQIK

[3] = biological target: T2, ADAR1 Zα (Homo sapiens, UniProt P55265 139-202); experiment: MST; 20 mM NaPi pH 6.4, 100 mM KCl, 1 mM DTT, 0.5 mM EDTA (LiCl replaces KCl where noted); ITC 35 C; MST 25 C with 20 nM protein (labelling without DTT); competition; details: protein: recombinant, tags: N-terminal 6xHis, thrombin site, T7 tag
T2 sequence: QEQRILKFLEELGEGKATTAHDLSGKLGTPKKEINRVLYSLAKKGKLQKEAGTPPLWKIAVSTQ

[4] = biological target: T1, ADAR1 Zβ; experiment: NMR; 100 µM RNA; large CSP increase; 20 mM NaPi pH 6.4, 100 mM KCl, 1 mM DTT, 0.5 mM EDTA (LiCl replaces KCl where noted); ITC 35 C; MST 25 C with 20 nM protein (labelling without DTT); competition; details: protein: recombinant; tags: N-terminal 6xHis, thrombin site, T7 tag
[5] = biological target: T2, ADAR1 Zα; experiment: NMR; 100 µM RNA; CSPs similar to ssUUAGGG; 20 mM NaPi pH 6.4, 100 mM KCl, 1 mM DTT, 0.5 mM EDTA (LiCl replaces KCl where noted); ITC 35 C; MST 25 C with 20 nM protein (labelling without DTT); competition; details: protein: recombinant; tags: N-terminal 6xHis, thrombin site, T7 tag; chain copies: 2
[6] = biological target: T2, ADAR1 Zα; experiment: ITC; 35 C; N=1.44; 20 mM NaPi pH 6.4, 100 mM KCl, 1 mM DTT, 0.5 mM EDTA (LiCl replaces KCl where noted); ITC 35 C; MST 25 C with 20 nM protein (labelling without DTT); competition; details: protein: recombinant; tags: N-terminal 6xHis, thrombin site, T7 tag; chain copies: 2; parallel G4
[7] = biological target: T1, ADAR1 Zβ; experiment: ITC; 35 C; N=1.12; 20 mM NaPi pH 6.4, 100 mM KCl, 1 mM DTT, 0.5 mM EDTA (LiCl replaces KCl where noted); ITC 35 C; MST 25 C with 20 nM protein (labelling without DTT); competition; details: protein: recombinant; tags: N-terminal 6xHis, thrombin site, T7 tag; parallel G4
[8] = biological target: T1, ADAR1 Zβ; experiment: MST; 20 mM NaPi pH 6.4, 100 mM KCl, 1 mM DTT, 0.5 mM EDTA (LiCl replaces KCl where noted); ITC 35 C; MST 25 C with 20 nM protein (labelling without DTT); competition; details: protein: recombinant; tags: N-terminal 6xHis, thrombin site, T7 tag; parallel G4
[9] = biological target: T3, ZBP1 Zα1 (Homo sapiens, UniProt Q9H171 1-70); experiment: NMR; significant peak disappearance; LLPS; 20 mM NaPi pH 6.4, 100 mM KCl, 1 mM DTT, 0.5 mM EDTA (LiCl replaces KCl where noted); ITC 35 C; MST 25 C with 20 nM protein (labelling without DTT); competition; details: protein: recombinant; tags: N-terminal 6xHis, thrombin site, T7 tag; parallel G4
T3 sequence: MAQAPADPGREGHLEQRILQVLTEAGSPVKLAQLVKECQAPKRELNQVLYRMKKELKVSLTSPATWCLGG

[10] = biological target: T2, ADAR1 Zα; experiment: NMR; 30 µM RNA; CSPs similar to UUACCG at 100 µM; 20 mM NaPi pH 6.4, 100 mM KCl, 1 mM DTT, 0.5 mM EDTA (LiCl replaces KCl where noted); ITC 35 C; MST 25 C with 20 nM protein (labelling without DTT); competition; details: protein: recombinant; tags: N-terminal 6xHis, thrombin site, T7 tag; predominantly single strand at 30 µM
[11] = biological target: T2, ADAR1 Zα; experiment: NMR; extensive peak shifts; 20 mM NaPi pH 6.4, 100 mM KCl, 1 mM DTT, 0.5 mM EDTA (LiCl replaces KCl where noted); ITC 35 C; MST 25 C with 20 nM protein (labelling without DTT); competition; details: protein: recombinant; tags: N-terminal 6xHis, thrombin site, T7 tag; no G4; transient structure

GGGAGGGCGGGAGGG [ALU-GQRNA] was tested. Which Kd [1] did it give?
The Kd was 1 µM.

Which results are given for UUAGGGUUAGGGUUAGGGUUAGGG (structured_RNA) [TERRA-GQRNA]?
Kd [2]: 0.0042 ± 0.0022 µM; Kd ([3]; chain copies: 2, parallel G4): 0.0193 ± 0.0137 µM

Which results are given for UUAGGG (structured_RNA) [GQ-UUAGGG 6-mer (100 µM)]?
binding result [4]: binds; binding result [5]: binds

GGGAGGGCGGGAGGG (structured_RNA) [ALU-GQRNA] was tested. Which Kd [6] did it give?
Its Kd is 0.43 ± 0.1 µM.

And the Kd [7]?
The Kd was 1.81 ± 0.3 µM.

What about the Kd [8] of the same molecule?
Its Kd is 0.336 ± 0.181 µM.

And the Kd ([3]; chain copies: 2, parallel G4)?
Its Kd is 0.116 ± 0.0693 µM.

Does GGGAGGGCGGGAGGG (structured_RNA) [ALU-GQRNA] bind [9]?
Result: binds

Does UUAGGG (ssRNA) [ssUUAGGG 6-mer (30 µM)] bind [10]?
Result: binds

For UUACCGUUACCGUUACCGUUACCG (ssRNA) [TERRA-mutRNA], which Kd ([3]; no G4, transient structure) is on record?
The Kd was 0.0359 ± 0.0089 µM.

Does CCGACCGCCCGACCG (ssRNA) [ALU-mutRNA] bind [11]?
Result: binds
